PMC7437470

Assays:
[1] = molecular target: Porcine Kallikrein (porcine)
[2] = molecular target: Porcine Kallikrein (porcine); assay: enzyme inhibition kinetics (Morrison equation); serial dilution of the serpin, pre-incubated with the protease before the fluorogenic substrate; kallikrein 15 nM with Gly-Pro-Arg-NHMec 9.1 uM, chymotrypsin 2 ug/mL with Ala-Ala-Pro-Phe-NHMec 42.9 uM; 37°C; sodium acetate buffer pH 7.0; Ki from apparent Ki; triplicate
[3] = molecular target: Human Cathepsin G (human) (UniProt P08311)
[4] = molecular target: Human Chymase (human) (UniProt P23946)
[5] = molecular target: Human Neutrophil elastase (human) (UniProt P08246)
[6] = molecular target: Bovine α-Chymotrypsin (bovine); assay: enzyme inhibition kinetics (Morrison equation); serial dilution of the serpin, pre-incubated with the protease before the fluorogenic substrate; kallikrein 15 nM with Gly-Pro-Arg-NHMec 9.1 uM, chymotrypsin 2 ug/mL with Ala-Ala-Pro-Phe-NHMec 42.9 uM; 37°C; sodium acetate buffer pH 7.0; Ki from apparent Ki; triplicate

Porcine Kallikrein (porcine), sequence (P00752 other isoform, or with tags, fused parts or gaps): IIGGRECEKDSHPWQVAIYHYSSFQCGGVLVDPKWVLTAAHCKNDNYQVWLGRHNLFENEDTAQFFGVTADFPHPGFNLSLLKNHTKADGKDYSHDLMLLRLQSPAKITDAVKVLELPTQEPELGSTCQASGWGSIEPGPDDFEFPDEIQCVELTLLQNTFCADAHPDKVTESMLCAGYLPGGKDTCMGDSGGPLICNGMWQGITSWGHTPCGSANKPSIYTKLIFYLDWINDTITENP
UniProt P23946, sequence (P23946 22-247): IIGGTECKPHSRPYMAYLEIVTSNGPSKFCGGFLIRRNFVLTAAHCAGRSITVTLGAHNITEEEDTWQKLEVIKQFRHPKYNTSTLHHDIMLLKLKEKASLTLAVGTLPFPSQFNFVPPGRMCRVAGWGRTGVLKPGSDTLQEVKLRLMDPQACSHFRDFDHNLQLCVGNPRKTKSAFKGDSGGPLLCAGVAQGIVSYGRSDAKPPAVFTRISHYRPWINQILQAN
UniProt P08311, sequence (P08311 21-244): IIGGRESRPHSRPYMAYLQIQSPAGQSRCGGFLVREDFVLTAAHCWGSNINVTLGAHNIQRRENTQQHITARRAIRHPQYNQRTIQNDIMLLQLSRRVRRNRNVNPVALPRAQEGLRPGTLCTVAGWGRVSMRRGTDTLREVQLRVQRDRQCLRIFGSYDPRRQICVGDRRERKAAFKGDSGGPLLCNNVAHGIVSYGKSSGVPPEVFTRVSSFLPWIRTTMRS
UniProt P08246, sequence (P08246 30-267): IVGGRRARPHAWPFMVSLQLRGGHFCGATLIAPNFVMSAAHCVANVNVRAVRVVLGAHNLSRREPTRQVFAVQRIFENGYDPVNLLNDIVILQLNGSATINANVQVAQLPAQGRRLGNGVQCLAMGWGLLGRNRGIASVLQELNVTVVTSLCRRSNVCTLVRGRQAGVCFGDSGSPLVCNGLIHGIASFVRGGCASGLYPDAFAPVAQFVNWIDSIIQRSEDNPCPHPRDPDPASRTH

Substance | inhibition of kallikrein (150 nM) activity on a fluorogenic substrate, rFhSrp1 at 10 and 500 nM (48% at 10 nM) [1] | Ki [2] | inhibition of cathepsin G (100 nM) activity on a fluorogenic substrate, rFhSrp2 at 10 and 500 nM (only slightly changed at 10 nM) [3] | inhibition of chymase (0.6 uM) activity on a fluorogenic substrate, rFhSrp2 at 10 and 500 nM (only slightly changed at 10 nM) [4] | inhibition of neutrophil elastase (50 nM) activity on a fluorogenic substrate, rFhSrp2 at 10 and 500 nM (only slightly changed at 10 nM) [5] | Ki [6]
recombinant Fasciola hepatica serpin 1 (natural protein) | 96% | 40 nM |  |  |  | 
recombinant Fasciola hepatica serpin 2 (natural protein) |  |  | 97.5% | 100% | 99.9% | 0.07 nM
